Source: US20180000925

Biological target: recombinant HCV E2 protein (eEnzyme)

B1: CD45 (Enzo Life Sciences) (protein)
chain: SCNLDEQQELVERDDEKQLMNVEPIHADILLETYKRKIADEGRLFLAEFQSIPRVFSKFPIKEARKPFNQNKNRYVDILPYDYNRVELSEINGDAGSNYINASYIDGFKEPRKYIAAQGPRDETVDDFWRMIWEQKATVIVMVTRCEEGNRNKCAEYWPSMEEGTRAFGDVVVKINQHKRCPDYIIQKLNIVNKKEKATGREVTHIQFTSWPDHGVPEDPHLLLKLRRRVNAFSNFFSGPIVVHCSAGVGRTGTYIGIDAMLEGLEAENKVDVYGYVVKLRRQRCLMVQVEAQYILIHQALVEYNQFGETEVNLSELHPYLHNMKKRDPPSEPSPLEAEFQRLPSYRSWRTQHIGNQEENKSKNRNSNVIPYDYNRVPLKHELEMSKESEHDSDESSDDDSDSEEPSKYINASFIMSYWKPEVMIAAQGPLKETIGDFWQMIFQRKVKVIVMLTELKHGDQEICAQYWGEGKQTYGDIEVDLKDTDKSSTYTLRVFELRHSKRKDSRTVYQYQYTNWSVEQLPAEPKELISMIQVVKQKLPQKNSSEGNKHHKSTPLLIHCRDGSQQTGIFCALLNLLESAETEEVVDIFQVVKALRKARPGMVSTFEQYQFLYDVIASTYPAQNGQVKKNNHQEDKIEFDNEVDKVKQDANCVNPLGAPEKLPEAKEQAEGSEPTSGTEGPEHSVNGPASPALNQGS
  dephosphorylation in an in vitro reaction (phosphotyrosine immunoblot): dephosphorylated by CD45
